# Reference: US20190119379A1 (BAYLOR COLLEGE OF MEDICINE, published 2019)
# B1: SIRPα-IgG4 Fc with derivative (CV1) of SIRPα ectodomain (Fc fusion)
# chain: EEELQIIQPDKSVLVAAGETATLRCTITSLFPVGPIQWFRGAGPGRVLIYNQRQGPFPRVTTVSDTTKRNNMDFSIRIGNITPADAGTYYCIKFRKGSPDDVEFKSGAGTELSVRAKPSAAAPPCPPCPAPEFLGGPSVFLFPPKPKDTLMISRTPEVTCVVVDVSQEDPEVQFNWYVDGVEVHNAKTKPREEQFNSTYRVVSVLTVLHQDWLNGKEYKCKVSNKGLPSSIEKTISKAKGQPREPQVYTLPPSQEEMTKNQVSLTCLVKGFYPSDIAVEWESNGQPENNYKTTPPVLDSDGSFFLYSRLTVDKSRWQEGNVFSCSVMHEALHNHYTQKSLSLSPGK
# notes: Secreted by tumor cells transduced with the lentiviral vector pCDH.CMV.SIRPα-Fc.EF1.GFPpuro or infected with SIRPα-Fc-VV; It was never purified; also called SIRPα-Fc; SIRPα-FC
# Molecular target: T1, human CD47 on OV10 315 cells (human, UniProt Q08722 19-323)
# T1 construct: whole, on cells
# T1 sequence (Q08722 19-323): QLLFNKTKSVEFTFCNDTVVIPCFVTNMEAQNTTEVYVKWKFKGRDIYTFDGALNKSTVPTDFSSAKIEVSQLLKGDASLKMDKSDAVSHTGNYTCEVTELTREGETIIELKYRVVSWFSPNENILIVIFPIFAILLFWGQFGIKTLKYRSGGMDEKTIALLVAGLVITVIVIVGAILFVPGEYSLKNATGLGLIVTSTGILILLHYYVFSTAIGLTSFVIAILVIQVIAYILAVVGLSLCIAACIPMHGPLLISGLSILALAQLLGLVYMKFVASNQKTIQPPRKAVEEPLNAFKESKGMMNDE
# Experiment: FACS for Fc on YFP-negative OV10 315 cells 24 h after infection with SIRPα-Fc-VV
binder,measurement,value
B1,binding result,binds
